Drawing on patent US20260265348A1, this text covers Kd, koff and kon for one molecule.

The assay deals with recombinant HSV-2G glycoprotein B (gB) ectodomain (aa 22-724), trimeric (HSV-2 strain G). The assay can be described thus: bio-layer interferometry (Octet), dilution series on HSV-2 recombinant gB.

B1: HDIT102(H4), fully human IgG1 anti-HSV gB antibody (antibody, V domains shown)
VH: EVQLVQSGAEVKTPGASVRVSCKASGHTFRTFDINWVRQAAGQGLEWMGWMSPNSGNTGYARQFQGRVTMTRNISANTAYMELRGLRFDDTAVYYCARGPGSTGTTGSMDVWGQGTTVTVSS
VL: QAGLTQPPSVSVAPGKTARISCGGNNIGSKSVHWYQQKPGQAPVLVIYYDSDRPSGIPERFSGSNSGNTATLTISRVEAGDEADYYCQVWDSGSVVFGGGTKLTVLG
Broadly, the Kd is the concentration at which binding is half-saturated. In general, koff refers to the rate constant with which the complex falls apart. One may read the kon as the second-order rate constant of association. With B1, the dissociation constant (Kd) was below 1 pM, the dissociation rate constant (koff) was below 1e-07 s⁻¹ and the association rate constant (kon) is 727000 M⁻¹ s⁻¹.
